Test results published in the domain aggregation screens of Martell et al. (2025).

Test: soluble fraction after stress (log2 fold change); higher = more stays soluble; pooled small domains, quantitative proteomics
Details: stress: pH 4
Outline: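 Pooled custom libraries of small protein domains were stressed at pH 4 and then measured by high-throughput quantitative proteomics. The fold change in the amount of each domain that stays soluble after the acid stress serves as a measure of aggregation propensity. Fold changes are given on a log2 scale, and higher values mean more of the domain stayed soluble.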

| Sequence | soluble fraction (log2) |
| --- | --- |
| HMINEVVSLRDVPSFIGKAKRDVIRIAEENNLKIKINGNGYVKEQTPNPGNKYKSNQEIKVFLEPG | 0.0157 |
| HMINFSKNIISDTTSIKEAIEILNIISGRDNHILFVLNDKRQLIGTLSDGDVRRGMLASKTISQSVTEVM | 0.0244 |
| HMINIDESIDESLSEDDAVLDLLERASASFTKAQEALLEGDLGRYQTLIEQADRLVAKALELLDEKN | -1.34 |
| HMINIQYSYNDGKETLHNLSPEVIAEKIMDDPNGYHIVWKQGMVGWVNANDIDDIAKLLRQKK | -0.0166 |
| HMINKDNLIEEILKFINTKIADISSNNPLFDIVAKPYISKVVTNNVSKLDKALSLIADDKGMVDADGLLT | -0.295 |
| HMINLDGIGEKISRLRKEQGVTIRELSEYTGYSVGFLSNLETGKNSPTVESLQRVAEALRTDIIEILTK | -0.754 |
| HMINLNEVLANFQKSYPNLAGFKYDQGMDALVYEGNYIRLNGYMLSRINPTLFSMSPDDIFTYLKNGF | -1.22 |
| HMINRMGRLVEALSHMIANTKPGARLPSEPELARQLGVSRATLREAMRTFEAQGMIHRRQGAGTFVVH | 0.00515 |
| HMINYSQKQLIAIQDELSKRFQALENESTKNNVTGFGVGLHYIDIDLIVNTPEKQKEFREKIMDSPAFRFN | 0.106 |
| HMINYYELLKLDMNAAHEEINDAIKLESEKNTIPEDQIRTMKSIFFNTEFKKEYDQRLMNFLLT | -1.28 |
| HMIPDAIDPDGRFKWRAGEAVVGFGRHAGEPLKKIAIENPEFLRWILKADFSTDVKKIASDALKGYFPEK | 0.284 |
| HMIPDLPAVGVNVHKERRRQQLSLDALAAGSGVSKAMLSQIESGKVNPTVATMWKIAHALGVDFELLLKGE | -0.00451 |
| HMIPDPPALGSNLHRERRRQQLSLDALAAASGVSKAMLSQIEADKVNPTIATMWKIAHALNIDFETLLRGE | 0.172 |
| HMIPENKRVLISLTYIYGIGKKISQDILEKANIDSSIKTSQLTDDDVARIRQLIENDYLVEGELRV | 0.00777 |
| HMIPLPEDVASMRERLALTPEKADELFGLEDGSFARYEHGEEKVPFVVFQLLWLLGKYPHLIGELR | -0.801 |
| HMIPRGFSRYYILELLQKKPHTGKEIIDNAIKESGGRWNPSPGLIYPLLGRLLDENLIEETNDGKYK | -0.631 |
| HMIPSLTITVNEHSRQITRGTSLYTLRDALYPDADVLVVNGHPADSDRHLEEGDAVVLIRRGA | -0.394 |
| HMIQIQDIAFSEFLQELDKGNIVEVNIKGDLINGDLINGKKFKTVAPYDPNLVEKLSKQNVRINVEPIN | -0.0277 |
| HMIQLKEHDVVRLRETIVENDEKIPAGTRGVVLSVYDGGRAFAVEVADDRAASAIITAFRDQLEVY | -0.0481 |
| HMIQNTGMMESGDSIRGMALDAGFPLLMVVGYRGWTRKGNTPDSAAVYTEPFLNAFRLNYYLVEHDE | -0.0253 |
| HMIQVNKTQALIIEEMRDNPNITLLELQKTLSLGRTAIQNNVSSLRKRQIIKRVGSNKNGYWEVTDK | 0.22 |
| HMIRQETYLLVRKAVGALPVQMRKIIELAMQGKKNAEIAAQLSISEGTVHTLKKTAYKKLRDRLQE | -0.32 |
| HMIRQGTKQALLIEMLQRPEGASITEIVEATSWQAHTARGAISGALKKKLGLPITSEKHPERGTVYKL | -0.55 |
| HMISAQEQALRNLKLSNGMTWKALAKALGITERSILSYVAAPGTKGYREMPAEVWHKLENISGH | 0.143 |
| HMISDAEWTIMKALWQSEDKKMTLKEIAEAVADSGWSYTTVRTMVGRLVEKEAIEADESHPRNFRYSAA | -1.4 |

| Sequence | soluble fraction (log2) |
| --- | --- |
| HMISEGDIIKGTVIDVNEEEVILDLKYYAQGVIKAENLSNDPDFLAAGKISVGDEIEATVIKMDDGEGNIE | -0.496 |
| HMISESIPAKDALLRLLNTAYQTRTNAAGEFYFNDVPPGKYILQASVNDVEIIRENISINEN | -0.433 |
| HMISEWDAAYSYAKQYYEENGHLFVPKKYVTSEGAALGKWIWEQRDSYLGLSSYKISDKKIEMLEDIGMFW | -2.73 |
| HMISINVIGEMISGSYGNTPFSRTYEKDIYEQMVKLSDDADQAQTVEEYNKILAEFSLLTTEDLK | -1.73 |
| HMISKWGELVDLAVQLDIIQKSGSWFSMGDERIGQGANSVKDYLIANPDIAEKVEAEVRENLWKLN | -0.351 |
| HMISKYLRIESDILSAIREGRLKPGDKLPGQSEMRRIYNVSAITVRKAFTDLINDGYLVGVRGSGTYVAKR | 0.117 |
| HMISQATMEKMGLTNRERQLVDFIVRGASNQEISEKMFISINTVKIHVSNIFRKAGVRSRTELMDKYP | -0.693 |
| HMISSKDIINDEDGARLGKIADVEIDVATGKILSVHVYRSFKLLHLFGNKDVVQIPWNKIMKIGSDVVIVE | -0.198 |
| HMISVENLSNREFEIFQLIGNGFSTKEMAKKLNLSIYTVESHKKNIKEKLKLKNSSDLSKYAIQWVIMQN | -1.35 |
| HMITANNYFNEVERIGVETLPETLRKGHDLVVRSTNSGTNWSNYQNNESIRKVIDLYLQKLNEYVSTST | -0.676 |
| HMITGSIQPKNGKYYAVLNLYDHTGKRRPKWVSTGYTVKGNKKKAQEVLNELTRRYSAQLPPSK | 0.22 |
| HMITLPDFVGKDVETVKAWAKENGITLIVNKVEDSAKKDTVISQTPTTYDYSKIMKGSSFTVNVAKE | 0.0768 |
| HMITNLEPFKDFVRGFSGLHLEGVGQEKLAAALDERIRKTGSANERDYLQLIMEDVAERLKLINILT | -1.17 |
| HMITPAARLRALKIRLSVDEVAQIVQRLVNGETVYQIGKPDTGGHAKATVGKINALRLAGQLHFL | -0.259 |
| HMITTLLVENLQDVGMRLDHYLVYNLIKYSRSHIQSFIRSGDIRVNGKKVKTGYSLELKDLIHIEMP | -1.1 |
| HMITVPKVINMSETQARQTLDALGLNVTLSATQVMNDKIPYGYVAAQSYSAGKEVPAGTTIELTMSIGL | 0.0236 |
| HMIVDYPSFVGKTKQELEKWAKENNIIIRYRQLSVTASDKVKAQLPATTTYKRIMKGSSIEVELEL | -0.749 |
| HMIVIMKAKAEEEDVNRVIDTIQSLGLRTQLNLGAERMVVAVIGDISKIGEDNFFRIRAMKGVENTVFVSK | -0.811 |
| HMIVMPELRGKDLKEAERLLSSHNLRYELVDSVYDKSLAPGVVVEMVPQSGNTVKPGRIIFLSINA | -0.272 |
| HMIVNTTRAPYLLGETEQDAMRLARQAGLVPEIVRQSSAEPAGTVILQSHDFDYRMRRGSVILITVSTGPL | 0.22 |
| HMIVPPAIPFRALGIFGPRDRPIVTFEDGPRLINAREGDVLDGRFILRRVGRESVDFAFVGLPPEITRRIP | -0.608 |
| HMIVSEYIIIGGDKKEYGPVSMGEVGEWVQGGRANGDSKIKKVGTEEWGRLRDFPEFSAYLS | -0.309 |
| HMIVVMARETSTDDLEAIRERIESRGMVAQINLGVERTVIGVMGSIPPDFKDEMELMNGVVEVVMISK | -1.64 |
| HMIVVMKTSASERDLQEVIARIEQFGFATRSIVGSERATVSVLGAPLPDSLQEALERMPGVEEVVRITK | -0.0559 |
| HMIYAEDFVGRQGTANTILRPSGRIEIEGEVYDAYTRGEYVEAGERVVVISQEGSTLKVRVV | -1.36 |

| Sequence | soluble fraction (log2) |
| --- | --- |
| HMIYQEGMQVKYQGKEYVISEIQDYKTYKTIKLDDNEGYLNGFITGSEILSFRNESELDLEI | -0.785 |
| HMIYSKSDLELFGIKKIDVMEENILMLILSEYELDQTPKNILIDEAVRLSKKFGADNAYKFVNATLDTLL | -1.51 |
| HMKAETILAIPENQPERLFPNNEDEARKIYRDLAREWHTDRNKSPKAQDVFSHLSKLYDIVIDRIKNKTWT | -0.0463 |
| HMKAGRNTLARQMAILEVLQKDGRALVDDLAARFETTPQTIRKDLSALAEVNQISRFHGGAALVG | -0.279 |
| HMKAKTYTVQYIDEGKIIKEEELEEGSIINAPEVTKEGHTFIGWYEGEEKYDVYEPITRNLILESKNEIN | -0.989 |
| HMKALEGMRTVFTLADLATEPVTVEITVLEAFKYTTTLEIVQRPVLREWMTNPSMLIRVYHDASTAE | -0.138 |
| HMKAMIIVMKPGADMATISKVLKTIETNGFKPHLSKGEETTVIGVIGDERKLNPDIFSTLEGVERIVPVA | 0.279 |
| HMKASTRELLDFVLSQRGVSTASVAKALGISVQNASTRLKKLSNEGLIIRSEASSLTGGIEFLYS | 0.0289 |
| HMKDASEFLGAKGKTITPLRPTGAAVINGEKVDVLAEGEFIPKNAEIVVIKVEGSKIIVRNANN | -0.0474 |
| HMKDDLTWSEGLMPNVVGMGLRDAMFMLENSGLRVNYSGRGKVTRQSPQPGVRIKRGATVAIELRL | 0.0273 |
| HMKDEHYLYIKARVDNGDYPHLSELKSAEEIELVMPKLLQDGIVEFNKETGEYTIGEDVKAEIERL | -1.02 |
| HMKDESYALGTRLLSHALGKTKLEDLAQEKIDEVVQQSGNKTLEQLLTNIGLGNALSIGIARQLT | ≥ 0.43 |
| HMKDGAKYFQLFGLLKNEINRGIYQSGQKIPGENELAEKYGMSRQTVRQALSLLEQESLIERRQGSGTYVR | 0.185 |
| HMKDGMRVYITYHDSEEEPEKPIGDGTTKGWHTNSTASVVWISQKVAESADLGIWGDPIRIKGEA | -0.217 |
| HMKDIIVDPQGQYNHPGVPTRIPSSDITMKGVGYPVLGIADNGQKQMMQPGQDYKFPGAKYVDEYPQM | 0.0501 |
| HMKDIIVLGAIQAGIKKFDKIQKMTQIEPEELNSILEQLENRGFIQVAEKSGLLGKKIEILVTEKGSNEVD | -0.484 |
| HMKDITAVISKKKGRDYYYIIVSYHLSNGKRVQKWIKTEFSVNGNNKRKLEQKRIEILQEWQNKLV | -0.0977 |
| HMKDITMPNVYGLTLEMAEQTLKQSELSIFKAMKINSDTVEEGKVIYTDPKANSIVSGDQEITIYVSDGP | 0.22 |
| HMKDKSEKTKKLIFEAAFKIIREEGFSELSANKIAQVASVSKGVIFHHFSQMDDLYLFMLDTL | 0.192 |
| HMKDLTAIKGVGEFFAKKLSQAGYQSITNLTDVNAKRLQADTGIPLPIAARIIKEAQSLIAET | -0.00834 |
| HMKDMWNRIRRARLSAGLSQAALAKETGVRRSAVTQWEKEGGTSPSVANLARIAVVTQVHFEWLATGRGPG | -0.216 |
| HMKDNIRSILEDIPNIGPGRRRALLKHFGSIEAIRRASLEDLIKVDGMNRNAALSIMEYFGM | -0.24 |
| HMKDPSLEHIDALAGKPFQAFPGQDHRAHITAHLNFMSTNMVRNNPSIMAAIQKNILEHISLMAQEQIQL | -0.683 |
| HMKEETYHYTVRYVTDGGDILASYEGKATKDSVFFPEVKTFDGYTAVRGEEPMFHLVSDHAVFQIVYQKNG | 0.204 |
| HMKEFEINSQWKPSLEVYDILSVKGGISRNFIEDSIPEFVLYWRGRGDKSNTWDSKFVQHVKRQWNFYSGL | -2.41 |
